Reference: publication PMC10454365

Target: Recombinant human LY6K protein (LY6K-Wt) (human) (UniProt Q17RY6)
Assay: SPR; LY6K immobilised on a CM5 chip by amine coupling (~6200–7000 RU); TbR1 injected at various concentrations, 50 μL/min; Biacore T200, 25 °C; running buffer PBS-P + 5% DMSO; 1:1 kinetics binding model

B1: Recombinant human TbR1 protein (receptor)
chain: LQCFCHLCTKDNFTCVTDGLCFVSVTETTDKVIHNSMCIAEIDLIPRDRPFVCAPSSKTGSVTTTYCCNQDHCNKIELPTTVKSSPGLGPVEL
B1 gave a Kd of 9.2 nM, a koff of 0.000468 s⁻¹ and a kon of 51000 M⁻¹ s⁻¹.
